The text below walks through data of the supplement of paper PMC10126150.

± gives the standard deviation of the averaged measurements.

The subject of this data set is ATP. As to the kind of experiment: switch fluorescence ratio, 500 uM ATP over buffer (Cy3 cluster intensity, sum of 5 cycles each) (fold (ratio)); higher = stronger signal-on switching upon ATP binding; sequences stand for … in TCGTCGGCAGCGTCAGATGTGTATAAGAGACAGTTTTTTTTTTTTTTTTTTTTTTTTT…TC. The note with it: aptamer strand: ATP DNA aptamer (quencher-CACCTGGGGGAGTATTGCGGAGGAAGG + anchor), 100 nM annealed; ATP concentration: 500 uM. The method, boiled down: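 Switching-strand clusters labelled with Cy3 on a modified Illumina MiSeq flow-cell were annealed to 100 nM quencher-labelled ATP aptamer, imaged in selection buffer, and re-imaged after 15 min with 500 uM ATP at 22 °C. This was done over five cycles with NaOH stripping and re-annealing in between. The fluorescence ratio is summed target-cycle over summed buffer-cycle Cy3 intensity per cluster, averaged per switch-domain sequence, excluding clusters outside 100-1000 RFU.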
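Further: ATP exposure 15 min at 22 °C before imaging.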

With CACAATCGGG, the switch fluorescence ratio was 1.005 ± 0.0088.
Consider TCGGTGTTTC, for which the switch fluorescence ratio stood at 0.962 ± 0.017.
Consider CTTACCTTGC, for which the switch fluorescence ratio is 1.99 ± 0.44.
The result for ACGGCTGGAA reads 0.969 ± 0.015; that for TTACCGAGGT, 1.03 ± 0.031.
Take AAGTATACTT: the switch fluorescence ratio is 0.986 ± 0.0049.
Then AAAGATGTCG, with 1.07 ± 0.044; and TTATTGGAAT, with 1 ± 0.063.
The result for CTTAGATGTT reads 0.963 ± 0.024; that for GGGCTCAGGC, 0.988 ± 0.0094; that for GTTATAGCGG, 0.976 ± 0.018.
TTCCATATTT: the switch fluorescence ratio was 1.02 ± 0.026.
The result for CAGTTAGTGT reads 1.001 ± 0.00021; that for TTTATTTTTC, 1.04 ± 0.046; that for GATTCTTAAG, 1 ± 0.022.
For the sequence GTGTGCGGGG, the switch fluorescence ratio was determined as 1.06 ± 0.079.
As to ATGTCCGGG, the switch fluorescence ratio came out at 0.968 ± 0.045.
Then CGGACAGGGA, with 1.03 ± 0.035; and CGTGGGGGAT, with 1.01 ± 0.029; and TCGTATGGGT, with 1 ± 0.045.
Then TACAATGTTT, with 1.02 ± 0.059; and TAAACGCGTA, with 0.998 ± 0.029.
Then AGACGGAACT, with 1.08 ± 0.025.
Turning to ATTGATGGCG, the switch fluorescence ratio worked out at 0.982 ± 0.06.
The result for CAGTGAGATG reads 1.03 ± 0.019; that for ACTTCAAGGG, 1.26 ± 0.34.
On to CTAGTGGGGA, for which the switch fluorescence ratio worked out at 1.01 ± 0.017.
Regarding CTGATTTTTT, the switch fluorescence ratio turned out to be 1.02 ± 0.045.
The result for GGCGTCTATC reads 1.01 ± 0.0096.
Then GCGAGGGTGT, with 1.12 ± 0.039.
Then GAGTGAGTAC, with 1 ± 0.055.
Regarding CAGGGTGCAT, the switch fluorescence ratio came out at 1.02 ± 0.051.
The result for ATTTCTTGGG reads 0.99703 ± 0.00034; that for GATATAAGCT, 1.05 ± 0.066; that for GGTTAAAGGG, 1.07 ± 0.15.
The result for GATTGCTTGA reads 0.999 ± 0.034.
Then ATCGGAGGAA, with 1.17 ± 0.061; and AGAGGATTTG, with 1.02 ± 0.022.
On to CACCTAATGT, for which the switch fluorescence ratio came to 1.06 ± 0.015.
Consider GGGGGGACAA, for which the switch fluorescence ratio was determined as 1 ± 0.013.
Then TTTCATTAAA, with 0.994 ± 0.033; and AATGTGGATA, with 0.984 ± 0.028; and TAAAGGCTAC, with 1.17 ± 0.2.
Take TTTTTTATTC: the switch fluorescence ratio is 1.15 ± 0.29.
Then GGAACCATAT, with 0.997 ± 0.013; and GAGGGGACGA, with 0.998 ± 0.011.
Regarding GTGGGGTTGT, the switch fluorescence ratio is 0.973 ± 0.022.
In the case of GGGTGTAAAA, the switch fluorescence ratio amounted to 1 ± 0.022.
GCCCTGATGC: the switch fluorescence ratio came out at 1.01 ± 0.051.
For the sequence GGGGAGGGCT, the switch fluorescence ratio amounted to 0.964 ± 0.033.
For TTTCGAGCGT, the switch fluorescence ratio was 1.01 ± 0.029.
Take AAGGGCTTCA: the switch fluorescence ratio turned out to be 1.031 ± 0.0074.
The result for GAGATGGGGC reads 1.09 ± 0.1; that for TTCGGTCACC, 1.014 ± 0.0054.
The result for TTTCGTTTCT reads 1.03 ± 0.024; that for ATTGCTACTT, 1.031 ± 0.0052.
As to AGTGTGGGGC, the switch fluorescence ratio worked out at 1.03 ± 0.0097.
Then TTTTGTAAGA, with 1.03 ± 0.013.
Then GGTGAAGAGT, with 1 ± 0.038.
Regarding TTTACTATGG, the switch fluorescence ratio stood at 0.9984 ± 0.0023.
Then TCGGACTCGT, with 1.03 ± 0.044; and GCACCGGCTA, with 1.16 ± 0.23.
Take GGTACGTATG: the switch fluorescence ratio was 0.986 ± 0.036.
Then TTATTAAGCT, with 1.01 ± 0.027.
For the sequence GGGCTTCTTG, the switch fluorescence ratio is 0.962 ± 0.021.
Then TATTCACATT, with 0.994 ± 0.024; and CTGGGTCCGG, with 1.01 ± 0.024.
Then GGGGGGGAAC, with 1 ± 0.04.
For CGAGTGAAAT, the switch fluorescence ratio came out at 1 ± 0.018.
The result for TAAATGTGCG reads 0.996 ± 0.031; that for TTCGGCGCCA, 1.03 ± 0.013; that for AGGGGCTCCG, 1.02 ± 0.036.
For TATAATTGGG, the switch fluorescence ratio came out at 0.9921 ± 0.0015.
The result for GGCCTGCTCG reads 0.988 ± 0.029; that for CGGTAAATGT, 1.05 ± 0.071; that for CGTGACTGGT, 0.9683 ± 0.005.
The result for GGGGTCGTTT reads 0.9947 ± 0.0067; that for ATACGAGCAG, 1.067 ± 0.006; that for TAAGCGTTGT, 0.98 ± 0.054.
The result for CGTTGTTGGT reads 1.015 ± 0.009; that for AGAGGCTGAA, 1 ± 0.012.
For the sequence AAATTTAGTA, the switch fluorescence ratio was 0.99 ± 0.018.
Then TATATGAGAT, with 1.01 ± 0.017; and TGATTCAGGT, with 1 ± 0.024.
For CTTGTGGATG, the switch fluorescence ratio was 1 ± 0.029.
As to GGGTTAATTG, the switch fluorescence ratio was determined as 0.983 ± 0.017.
Then TCATTGGGTT, with 0.977 ± 0.026.
Then TCAGGTCGCA, with 0.9894 ± 0.0054; and GGTTATTTA, with 0.992 ± 0.035; and GGGTAGGAAG, with 0.971 ± 0.024.
The result for GGGAGGGGGA reads 1.01 ± 0.035; that for GTAGTATGCA, 1.01 ± 0.02.
As to TCGTAGAGGA, the switch fluorescence ratio stood at 0.995 ± 0.032.
Then TCAGGGGGTT, with 1.05 ± 0.037; and TCTAGGTAGA, with 0.993 ± 0.026; and TTAGGGCTCA, with 0.996 ± 0.027.
Then GCATGTATAG, with 1.015 ± 0.0046.
The result for TCGGGGTATC reads 1.03 ± 0.0046; that for GACGGGATAG, 1.245 ± 0.0072; that for ATTCATTTTC, 1.02 ± 0.015.
With TAAAATAGTC, the switch fluorescence ratio was determined as 1.02 ± 0.034.
The result for ATTTTGTGGG reads 1 ± 0.023; that for CCGGGGTTTT, 1.11 ± 0.22; that for TGGGGAACCT, 0.96 ± 0.032.
The result for CATTAGCAGG reads 1.08 ± 0.032; that for AAGTAGAGTG, 0.9834 ± 0.0013; that for GGAACACACG, 1.32 ± 0.039.
Turning to ATGGTTAGGG, the switch fluorescence ratio came to 1.03 ± 0.033.
Then AAAAAAATTC, with 1.05 ± 0.079.
Turning to GTTCCTGGGG, the switch fluorescence ratio was determined as 1.03 ± 0.019.
With CTTACGTCTG, the switch fluorescence ratio is 1.01 ± 0.015.
The result for TTTAGTGTTT reads 1.004 ± 0.007; that for TTAGTTGCTT, 1.01 ± 0.03; that for GCTTTATAGG, 1 ± 0.016.
The result for GCTAGGGTA reads 0.9973 ± 0.0043.
As to TTTGATAATT, the switch fluorescence ratio stood at 1.07 ± 0.15.
The result for ACACAATCAT reads 1.02 ± 0.011; that for GGAAATTTTT, 0.973 ± 0.019.
As to GGGGTCTTTT, the switch fluorescence ratio was found to be 0.999 ± 0.033.
Then TGTGCTGGGT, with 1.02 ± 0.024.
